Data reported in patent US20180216194A1.

Assays:
Assay in all cases: Bio-Plex bead immunoassay, multiplexed beads, single antigen, single detection antibody
[1] = molecular target: recombinant MIA protein (R&D Systems DuoSet Cat. # DY2050) (human) (UniProt Q16674)
[2] = molecular target: recombinant SPON1 protein (R&D Systems Cat. # 3135-SP/CF) (Homo sapiens (Human)) (UniProt Q9HCB6)
[3] = molecular target: recombinant HSP27 protein (R&D Systems DuoSet Cat. # DY1580) (human) (UniProt P04792)
[4] = molecular target: recombinant MIC-1 protein (R&D Systems DuoSet Cat. # DY957) (human) (UniProt Q99988)
Sequence of UniProt Q99988 (Q99988 197-308 limits assumed): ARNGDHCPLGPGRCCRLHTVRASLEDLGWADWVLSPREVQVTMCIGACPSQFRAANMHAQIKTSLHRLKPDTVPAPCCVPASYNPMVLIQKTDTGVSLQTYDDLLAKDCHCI

[5] = molecular target: recombinant OPN protein (R&D Systems Cat. # 1433-OP-050) (Homo sapiens (Human)) (UniProt P10451)
Sequence of UniProt P10451 (P10451 other isoform, or with tags, fused parts or gaps limits assumed): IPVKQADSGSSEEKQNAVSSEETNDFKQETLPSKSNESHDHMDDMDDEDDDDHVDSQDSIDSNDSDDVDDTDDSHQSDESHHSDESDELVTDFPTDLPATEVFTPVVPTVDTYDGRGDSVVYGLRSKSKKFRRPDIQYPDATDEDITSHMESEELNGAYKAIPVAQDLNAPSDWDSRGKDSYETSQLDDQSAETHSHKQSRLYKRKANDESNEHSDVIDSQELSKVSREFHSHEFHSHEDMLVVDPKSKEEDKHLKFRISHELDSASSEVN

[6] = molecular target: recombinant CEACAM-1 protein (R&D Systems DuoSet Cat. # DY2244) (human) (UniProt P13688)
Sequence of UniProt P13688 (P13688 35-428 limits assumed): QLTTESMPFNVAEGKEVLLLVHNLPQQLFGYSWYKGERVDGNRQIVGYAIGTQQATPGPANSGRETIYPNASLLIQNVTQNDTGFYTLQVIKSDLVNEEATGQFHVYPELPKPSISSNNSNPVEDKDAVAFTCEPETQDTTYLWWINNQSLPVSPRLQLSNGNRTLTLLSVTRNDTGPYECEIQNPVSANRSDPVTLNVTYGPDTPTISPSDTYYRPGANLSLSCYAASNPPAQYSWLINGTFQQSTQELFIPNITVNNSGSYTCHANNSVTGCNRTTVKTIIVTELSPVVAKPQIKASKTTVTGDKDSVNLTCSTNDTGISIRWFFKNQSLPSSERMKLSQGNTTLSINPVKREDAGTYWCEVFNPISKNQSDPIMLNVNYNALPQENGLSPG

Sequence of UniProt P04792 (P04792 whole entry): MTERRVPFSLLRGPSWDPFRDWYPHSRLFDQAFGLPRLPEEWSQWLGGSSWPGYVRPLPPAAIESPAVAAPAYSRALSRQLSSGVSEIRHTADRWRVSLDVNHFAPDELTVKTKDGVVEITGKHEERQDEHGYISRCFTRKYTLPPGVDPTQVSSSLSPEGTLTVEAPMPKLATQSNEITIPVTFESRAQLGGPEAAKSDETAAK
Sequence of UniProt Q16674 (Q16674 25-131 limits assumed): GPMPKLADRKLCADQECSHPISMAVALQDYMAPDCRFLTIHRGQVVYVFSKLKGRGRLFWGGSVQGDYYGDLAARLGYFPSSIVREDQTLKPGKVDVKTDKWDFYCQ
Sequence of UniProt Q9HCB6 (Q9HCB6 29-807 limits assumed): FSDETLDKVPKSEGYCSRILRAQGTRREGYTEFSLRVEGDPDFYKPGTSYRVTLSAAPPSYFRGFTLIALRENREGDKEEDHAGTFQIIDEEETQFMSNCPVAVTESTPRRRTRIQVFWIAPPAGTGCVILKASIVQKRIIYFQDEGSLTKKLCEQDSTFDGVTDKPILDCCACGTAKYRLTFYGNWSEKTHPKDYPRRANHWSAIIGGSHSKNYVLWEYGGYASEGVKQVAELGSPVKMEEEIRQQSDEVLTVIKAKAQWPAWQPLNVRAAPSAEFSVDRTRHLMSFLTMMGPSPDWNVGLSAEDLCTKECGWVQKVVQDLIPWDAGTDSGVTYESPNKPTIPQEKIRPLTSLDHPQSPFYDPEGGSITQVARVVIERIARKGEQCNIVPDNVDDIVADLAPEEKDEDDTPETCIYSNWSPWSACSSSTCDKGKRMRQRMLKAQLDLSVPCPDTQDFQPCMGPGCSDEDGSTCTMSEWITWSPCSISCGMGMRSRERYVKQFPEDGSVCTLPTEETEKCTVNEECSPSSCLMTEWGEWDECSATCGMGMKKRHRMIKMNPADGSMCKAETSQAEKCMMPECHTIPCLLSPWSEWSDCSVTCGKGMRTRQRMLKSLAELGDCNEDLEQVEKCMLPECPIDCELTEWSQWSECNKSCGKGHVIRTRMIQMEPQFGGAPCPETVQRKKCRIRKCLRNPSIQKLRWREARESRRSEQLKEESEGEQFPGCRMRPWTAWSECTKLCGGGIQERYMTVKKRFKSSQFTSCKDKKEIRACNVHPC

Row | % cross-reactivity (single-detection antibody) [1] [%] | % cross-reactivity (single-detection antibody) [2] [%] | % cross-reactivity (single-detection antibody) [3] [%] | % cross-reactivity (single-detection antibody) [4] [%] | % cross-reactivity (single-detection antibody) [5] [%] | % cross-reactivity (single-detection antibody) [6] [%] | Substance
1 | 0.2 | 0 | 0 | 0 | 0 | – | CEACAM-1 capture antibody (R&D Systems DuoSet Cat. # DY2244, mouse)
2 | – | 0.3 | 0.1 | 0.1 | 0.3 | 0.4 | MIA capture antibody (R&D Systems DuoSet Cat. # DY2050, mouse)
3 | 0 | 0 | 0 | – | 0 | 0 | MIC-1 capture antibody (R&D Systems DuoSet Cat. # DY957, mouse)
4 | 0 | 0 | 0 | 0 | – | 0 | OPN capture antibody (R&D Systems Cat. # MAB14332, mouse)
